Results: patent publication US20140056903A1 (Regeneron, published 2014)
Where a chain is given by its changes, count along the chain named. In names and notes the source's numbering stands.

B1: H4H2236N3 (antibody, human IgG4, V domains shown)
VH: EVQLLESGGNLVQPGGSLRLSCAASGFTFSSYAMTWVRQAPGKGLEWVSTISGSGTSTYYADSVKGRFTISRDNSRDTVFLQMNSLRAEDTAVYYCSKPSALRFLHWLAMDVWGQGTLVTVSS
VL: DIQMTQSPSSLSAFVGDRVTITCRASQDIRNYLDWFQQKPGKAPKSLIYAASNLQSGVPSRFGGSGSGTDFTLTINSLQPEDFVTYYCQQYNSYPPTFGGGTKVEIK
notes: human IgG4 Fc (H4H)
B2: H4H2355S (antibody, human IgG4, V domains shown)
VH: EVQLVESGGGLVQPGGSLRLSCAASGFTFSSYAMSWVRQVPGKGLEWVSAISGSGDNTYNAESVKGRFTISRDNSKNMLYLQMNSLRAEDTAVYYCAKTKFSSSLLFDYWGQGTLVTVSS
VL: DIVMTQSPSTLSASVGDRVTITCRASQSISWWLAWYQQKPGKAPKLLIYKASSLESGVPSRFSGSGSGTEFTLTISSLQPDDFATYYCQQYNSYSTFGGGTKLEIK
notes: human IgG4 Fc (H4H)
B3: H4H2291S (antibody, human IgG4, V domains shown)
VH: EVQLVESGGGLVQPGESLRLSCAASGFTFSNYAMSWVRQAPGKGLEWVSVISGSGGSTYYADSVKGRFTMSRDNSKNTLYLQMNSLRAEDTAVYYCAKPPSRAARYFNYGMDVWGQGTTVTVSS
VL: AIRMTQSPSSVSASVGDRVTITCRASQGISSWLAWYQQKPGKAPKLLIYAASSLQSGVPSRFSGSGSGTDFTLTISSLQPEDFATYYCQQANSFPFTFGGGTKVEIK
notes: human IgG4 Fc (H4H)
B4: H4H2295S (antibody, human IgG4, V domains shown)
VH: EVQLVESGGGLVQAGGSLRLSCVASGFTFSSYAMSWVRQAPGKGLEWVSAISGSGGSTYSADSVKGRFTISRDNSKNTLYLQMNSLRAEDTAVYYCTKPSSYSSSNFYYGMDVWGQGTTVTVSS
VL: B3 VL with A1D, R3Q, A50T, G68R, A91T, F94L, F96L, G100P
notes: human IgG4 Fc (H4H)
B5: H4H2296S (antibody, human IgG4, V domains shown)
VH: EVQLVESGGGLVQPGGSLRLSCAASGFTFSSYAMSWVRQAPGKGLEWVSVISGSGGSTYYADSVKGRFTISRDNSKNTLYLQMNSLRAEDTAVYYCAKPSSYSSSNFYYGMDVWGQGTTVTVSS
VL: B3 VL with A1D, R3V, Q55R, S76T, Q90H, A91T, G100P
notes: human IgG4 Fc (H4H)
B6: H4H2294S (antibody, human IgG4, V domains shown)
VH: B4 VH with A14P, V23A, A50V, S60Y, S63A, N77H, T118S
VL: B3 VL with A1D, R3Q, M4L, A91T, T97P, G100P, E105D
notes: human IgG4 Fc (H4H)
B7: H4H2345S (antibody, human IgG4, V domains shown)
VH: EVQLVESGGGLVRPGRSLRLSCAASGFTFDNYAMHWVRQVPGKGLEWVSGITWNSVSLGYADSVKGRFTISRDNAQNSLYLQMNSLRTVDTALYYCAKDRWGGSYYFDFWGQGTLVTVSS
VL: DIVMTQSPSSLSASVGDRVTITCRASQGISNYLAWYQQKPGKVPKLLIYSASTLQSGVPSRFSGSGSGTDFTLTISNLQPEDFATFFCQKYNSAPTFGGGTKVEIK
notes: human IgG4 Fc (H4H)
B8: H4H2344S (antibody, human IgG4, V domains shown)
VH: EVQLVESGGGVVQPGRSLRLSCAASGFSFSDYVMHWVRQAPGKGLEWVASIWFDGSNEFYADSVKGRFTISRDNSKNTLFLQMNSLRAEDTAVYYCAKKGVLVATSAFDIWGQGTMVTVSS
VL: DIQMTQSPSSLSASVGDRVTITCRASQSINNYLNWYHQKPGKAPKLLIYAASSLQSGVPSRFSGSGSGTDYTLTISSLQPEDFGNYYCQQSYRTSMYTFGQGTKVEIK
notes: human IgG4 Fc (H4H)
B9: H4H2346S (antibody, human IgG4, V domains shown)
VH: B8 VH with E1Q
VL: B8 VL with D1E, Q3V
notes: human IgG4 Fc (H4H)
B10: H4H2354S (antibody, human IgG4, V domains shown)
VH: B8 VH with E1Q
VL: B8 VL with M4L
notes: human IgG4 Fc (H4H); also called H4H2354S-1
B11: H4H2293P (antibody, human IgG4, V domains shown)
VH: B8 VH with E1Q, F59L, D109H
VL: B8 VL with D1A, S28N, K45N, R93S, V105L
notes: human IgG4 Fc (H4H)
B12: H4H2364S (antibody, human IgG4, V domains shown)
VH: B4 VH with V12E, A14P, V23A, A33V, A40V, A50V, S60Y, T97A, Y108H
VL: B3 VL with A1D, R3Q, S9Y, K42R, Q90K, A91T, G100P
notes: human IgG4 Fc (H4H)
B13: H4H2341S (antibody, human IgG4, V domains shown)
VH: EVQLVESGAEVKKSGSSVKVSCKASGGTFSRYAISWVRQAPGQGLEWMGGIIPLFGTLNYAQKFQGRVTLTTDESTSTAYMELSSLRSEDTAVYYCAVFYYGSGSYRNWFDPWGQGTLVTVSS
VL: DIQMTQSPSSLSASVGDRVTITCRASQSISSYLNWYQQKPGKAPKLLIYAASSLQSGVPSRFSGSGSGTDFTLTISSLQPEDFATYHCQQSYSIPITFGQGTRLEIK
notes: human IgG4 Fc (H4H)

Target: T1, human GFRα3 expressed with a C-terminal myc-myc-hexahistidine tag (human, UniProt O60609 32-374, biotinylated (sites not given) in ELISA format 2 and in the Octet cross-competition; not in SPR)
T1 construct: also called hGFRα3-mmh; hGFRα3-mmH
Assay: Octet cross-competition; biotin-hGFRα3-mmH pre-saturated with first antibody H4H2294S
Description: (§1) A cross-competition assay was conducted to assess the ability of select antibodies to compete with one another for binding to human GFRα3 using an Octet RED384 biosensor (Fortebio Inc.). The entire experiment was performed at 25° C. with the flow rate of 1000 rpm in Octet HBST buffer (0.01 M HEPES pH7.4, 0.15M NaCl, 3 mM EDTA, 0.05% v/v Surfactant P20, 0.1 mg/mL BSA). To assess whether 2 antibodies were able to compete with one another for binding to their respective epitopes on biotinylated recombinant human GFRα3 expressed with a C-terminal myc-myc-hexahistidine tag (biotin-hGFRα3-mmH; SEQ ID:370), around ˜1.2 nm of biotin-hGFRα3-mmH was first captured onto streptavidin-coated Octet sensor tips (Fortebio Inc, #18-5019) by submerging the tips for 1 minute into a 10 μg/mL solution of biotin-hGFRα3-mmH. The antigen coated sensor tips were then placed into wells containing 25 μg/mL solution of a first anti-GFRα3 monoclonal antibody for 4 minutes to saturate the biotin-hGFRα3-mmH surface. The sensor tips were then subsequently dipped into wells containing 25 μ/mL solution of a second anti-GFRα3 monoclonal antibody. The sensor tips were washed in Octet HBST buffer in between every step of the experiment. The real-time binding response was monitored during the course of the experiment and the binding response at the end of every step was recorded as shown in FIG. 9. The response of mAb-2 binding to biotin-hGFRα3-mmH pre-complexed with the first antibody was compared and competitive/non-competitive behavior of different anti-GFRα3 monoclonal antibodies was determined.

binding response of second antibody (nm) | Binder
0.05 | B1
0 | B2
0.12 | B3
0.04 | B4
0.04 | B5
0.02 | B6

Target: T1, human GFRα3 expressed with a C-terminal …
Assay: Octet cross-competition; biotin-hGFRα3-mmH pre-saturated with first antibody H4H2355S
Description: as §1

binding response of second antibody (nm) | Binder
0.18 | B1
0.07 | B2
0.31 | B3
0.2 | B4
0.18 | B5
0.16 | B6

Target: T1, human GFRα3 expressed with a C-terminal …
Assay: Octet cross-competition; biotin-hGFRα3-mmH pre-saturated with first antibody H4H2296S
Description: as §1

binding response of second antibody (nm) | Binder
0.07 | B1
0.02 | B2
0.18 | B3
0.05 | B4
0.07 | B5
0.04 | B6

Target: T1, human GFRα3 expressed with a C-terminal …
Assay: Octet cross-competition; biotin-hGFRα3-mmH pre-saturated with first antibody H4H2350P
Description: as §1

binding response of second antibody (nm) | Binder
1.98 | B1
1.77 | B2
2.57 | B3
2.05 | B4
2.1 | B5
2 | B6

Target: T1, human GFRα3 expressed with a C-terminal …
Assay: blocking ELISA 2, biotin-hGFRα3-mmH to coated hARTEMIN-mmH + hRET-10His
Description: The equilibrated sample solutions were then transferred to the hARTEMIN-mmH-coated plate. […] Absorbance was recorded at 450 nm on a Victor X5 plate reader (Perkin Elmer) to determine the amount of free hGFRα3-hFc in the pre-equilibrated hGFRα3-hFc-antibody solutions that was able to bind to the plate coated with hARTEMIN-mmH. IC₅₀ values, defined as the concentration of antibody required to reduce the signal from a constant concentration of hGFRα3-hFc by 50%, were calculated from the data using Prism software from GraphPad. The absorbance measured at the constant amount of 120 pM hGFRα3-hFc in the absence of anti-GFRα3 antibody is defined as 0% blocking and the absorbance with no added hGFRα3-hFc is defined as 100% blocking. The observed absorbance in the wells containing the highest antibody concentration was used to calculate the maximum blocking percent shown in the table.
In the second ELISA format, the plates, samples and data were processed similarly as for the first format except both hARTEMIN-mmH and human RET with a C-terminal 10 histidine tag (hRET-10His; R&D Systems, #1168-CR/CF) were coated for the blocking ELISA experiment. The 96-well microtiter plates were coated with a mixture of 1.2 ug/ml hARTEMIN-mmH and 6.9 ug/ml hRET-10His proteins in PBS overnight at 4° C. and then blocked with a solution of 0.5% (w/v) BSA. A constant amount of biotinylated human GFRα3 with a C-terminal myc-myc-hexahistidine tag (biotin-hGFRα3-mmH; SEQ ID:370) at 1 nM was pre-mixed with varied amounts of anti-GFRα3 antibodies, ranging from 0 to ˜100 nM in serial dilutions, followed by a 1 hour incubation at RT to allow antibody-biotin-hGFRα3-mmH binding to reach equilibrium. The equilibrated samples were then transferred to the coated plate. After 1 hour of binding, the plate was washed, then the bound biotin-hGFRα3-mmH was detected using HRP conjugated streptavidin (Pierce, #N200), and colorimetric signals were developed using TMB HRP substrates.

% max blocking [%] | IC50 [nM] | Binder
75 | 14.6 | B7
100 | 0.459 | B8
99 | 0.797 | B9
97 | 1.32 | B10
95 | 7.38 | B11
100 | 1.45 | B12
95 | 0.952 | B6
98 | 1.62 | B13

Target: T1, human GFRα3 expressed with a C-terminal …
Assay: Octet cross-competition; biotin-hGFRα3-mmH pre-saturated with first antibody H4H2212N
Description: as §1

binding response of second antibody (nm) | Binder
2.14 | B1
2.05 | B2
2.69 | B3
2.15 | B4
2.36 | B5
2.12 | B6

Target: T1, human GFRα3 expressed with a C-terminal …
Assay: Octet RED384; 25 µg/mL first antibody on streptavidin-captured biotin-hGFRα3-mmH
Description: as §1

Amount of Antibody 1 bound (nm) | Binder
2.64 | B1
2.73 | B2
2.89 | B3
2.83 | B4
2.88 | B5
2.91 | B6
